Experimental data from patent US9526786B2, “Thermostabilization of proteins” (The Trustee of Columbia University in the City of New York, priority 2007, dated 2016).
Substitutions are numbered along the chain they refer to. Names and notes keep the numbering of the source. Like-named read-outs stand apart in the source and are kept apart here.

T1: WT CocE (Rhodococcus sp., UniProt Q9L9D7)
T1 sequence (Q9L9D7 1-574): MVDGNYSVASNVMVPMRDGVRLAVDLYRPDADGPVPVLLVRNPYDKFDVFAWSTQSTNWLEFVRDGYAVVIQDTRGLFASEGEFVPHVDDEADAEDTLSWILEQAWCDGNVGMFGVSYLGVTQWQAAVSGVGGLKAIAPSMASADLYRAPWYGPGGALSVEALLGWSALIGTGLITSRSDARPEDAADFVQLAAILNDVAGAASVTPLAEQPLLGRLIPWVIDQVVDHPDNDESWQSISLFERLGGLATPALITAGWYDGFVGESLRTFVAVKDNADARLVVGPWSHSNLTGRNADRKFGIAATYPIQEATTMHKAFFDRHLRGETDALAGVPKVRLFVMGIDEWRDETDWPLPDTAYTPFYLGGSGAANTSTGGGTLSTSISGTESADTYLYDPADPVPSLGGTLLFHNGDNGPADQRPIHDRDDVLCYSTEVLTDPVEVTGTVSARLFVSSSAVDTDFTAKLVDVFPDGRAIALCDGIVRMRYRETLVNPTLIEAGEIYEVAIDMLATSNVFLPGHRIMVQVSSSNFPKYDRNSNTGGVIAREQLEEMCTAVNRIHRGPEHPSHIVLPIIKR

T2: CocE (Rhodococcus sp., UniProt Q9L9D7)
T2 construct: 6xHis (C); made in house; host or cells: E. coli BL-21 Gold (DE3), pET-22b(+)
T2 sequence (Q9L9D7 1-574): T1 sequence (Q9L9D7 1-574)

B1: T172R: CocE mutant (protein, listed as Rhodococcus sp.)
chain: T1 sequence (Q9L9D7 1-574) with T172R
B2: L169K: CocE mutant (protein, listed as Rhodococcus sp.)
chain: T1 sequence (Q9L9D7 1-574) with L169K

Experiments:
WT CocE = target: T1, WT CocE; conditions: excess benzoic acid; 5× molarity phenylboronic acid; 6031818
Description: Further characterization of the stability of wild type (WT) CocE and thermostable mutants was performed through circular dichroism, which detects small changes in protein conformation and structure. Analysis by repeated CD measurements at increasing temperatures allows analysis of the thermodynamics and melting temperature (TM) of the protein, so long as the melting is reversible (i.e. the protein resumes it's original conformation upon cooling). […] However CD is still of value in determining the temperature to unfolding.

CocE [1] = target: T2, CocE; assay type: biochemical, Rhodococcus sp. MB 1
Description: CocE is also able to cleave another substrate, 4-nitrophenyl acetate (FIG. 3). Cleavage is monitored by detection of the appearance of the 4-nitrophenol reaction product, which absorbs at 400 nm.
Further spectrophotometric analysis of cocaine stabilization was performed, by analyzing the ability of CocE to cleave 4-nitrophenyl acetate, after preincubation at 37° C. for various times, in the presence of various concentrations of cocaine. […] However, preincubation of CocE at the higher concentrations for various times at 37° C. indicated the enzyme was stabilized enough to be able to cleave the 4-nitrophenyl substrate (FIG. 5).

CocE [2] = target: T2, CocE; assay type: biochemical, Rhodococcus sp. MB 1; remark: listed apart in the source
Description: (§1) Analysis of CocE action on cocaine cleavage is performed by utilizing the spectroscopic properties of cocaine, which maximally absorbs light at a 240 nm wavelength. CocE activity is measured by monitoring for a decrease in signal at A240, using various concentrations of cocaine, and determining the initial rate of the decrease. From these values the Vmax of the enzyme can be determined. By pre-incubating the enzyme at 37° C. for various times before monitoring for activity, the half life of CocE at 37° C. can be calculated.
(§2) The initial rates (of decay) were determined by following the change in the intrinsic absorbance of cocaine at 240 nm (6700 M^1 cm^1)(Xie et al., 1999) using a SpectraMax Plus 384 UV plate reader (Molecular Devices, Sunnyvale, Calif.) using SOFTmax Pro software (Version 3.1.2). The reaction was initiated by adding 100 μL of a 2× enzyme solution (100 mM phosphate buffer, pH 7.4 and 300 mM NaCl) to 100 μL of a 2× cocaine solution (50 μg/mL enzyme, 100 mM Phosphate Buffer, pH 7.4 and 300 mM NaCl). All assays were performed with 100 μM DTT unless indicated otherwise. Final cocaine concentrations were as follows: 125, 62.5, 31.25, 15.63, 7.81, 3.91, 1.95, and 0.977 μM. Vmax and Km values were calculated using Prism (GraphPad Software, San Diego). For stability measurements, wild type and mutant enzymes were diluted to 2× concentration and incubated at 37° C. for the times indicated. At the end of each time point, an aliquot was removed and kinetic behavior was observed as outlined above.
(§3) In vitro kinetic assays. […] Initial rates were then used to determine Michaelis-Menten parameters. To assess thermal stability, enzyme preparations were preincubated at 37° C. for various lengths of time, prior to measurement of residual activities (Table 1 and FIG. 23).

CocE [3] = target: T2, CocE; assay: Screen for stabilization of CocE: 1 hour at 37° C., then 4-nitrophenyl acetate cleavage; assay type: biochemical, Rhodococcus sp. MB 1; conditions: forty compounds tested
Description: However all of these small molecules inhibited enzyme activity to certain degrees. It was evaluated whether there might exist a small molecule that could prevent CocE aggregation, without inhibiting enzyme activity. Such a molecule could be used as a stabilizer in vitro, e.g., during enzyme preparation, and in vivo. An assay was designed to screen a library of 20,000 small molecules for stabilization of CocE. In that assay, the enzyme is mixed with the compounds in a 96-well plate format, and then incubated at 37° C. for one hour. […] After 37° C. incubation, the enzyme/compound mixtures are tested for the ability to cleave 4-nitrophenyl acetate (FIG. 8). Only compounds stabilized would be able to cleave after this incubation period.
Forty compounds were first tested. The compounds were assayed in duplicate with appropriate controls. A duplicate plate (without enzyme) was performed as a negative control, to check for compounds able to cause an increase in 400 nm absorbance in the absence of CocE. […] Some were able to do this in the absence of CocE. These were discarded as false positives.
FIG. 9 is a plot of the initial rate of 4-nitrophenyl acetate cleavage for all compounds, after the background “no enzyme” cleavage was subtracted. […]

[4] = Description: as §1
as §2, with “Final cocaine concentrations were as follows: 125, 62.5, 31.25, 15.63, 7.81, 3.91, 1.95, and 0.977 μM. Vmax and Km values were calculated using Prism (GraphPad Software, San Diego).” left out
as §3

[5] = Michaelis-Menten kinetics of cocaine hydrolysis (absorbance at 240 nm); assay type: biochemical; conditions: cocaine
Description: as §2, §3
Determination of Catalytic Efficiency. To determine the catalytic activity a spectrophometric assay was performed. Samples of L169K/G173Q CocE were added to a 96-well UV permeable plate containing increasing cocaine concentrations (0.5, 2.5, 5, 12.5, 25, 50, 100, and 150 μM) to give a final concentration of 10 ng/ml CocE in a final volume of 200 μl. The change in absorbance at 240 nm was measured over 20 minutes, with readings every 10 seconds, by a SpectraMax Plus 384 UV plate reader (Molecular Devices, Sunnyvale, Calif.) using SOFTmax Pro software (Version 3.1.2). The change in absorbance was converted to the change in concentration and furthermore the rate of decay per mole enzyme is determined (Kcat). Kcat and Km of the enzyme are determined using Prism (GraphPad software, San Diego).

[6] = Circular dichroism melting temperature of CocE proteins alone; assay type: physicochemical; conditions: for melting temperature: circular dichroism, enzyme alone
[7] = tested on: cocaine-induced lethality; assay: In vivo potency of protection against cocaine-induced lethality; parameters: species or system NIH-Swiss mice; conditions: for protection against cocaine-induced lethality: i.v. pretreatment 1 min prior to i.p. cocaine
[8] = tested on: cocaine-induced lethality; assay: In vivo duration of protection against cocaine-induced lethality; parameters: species or system NIH-Swiss mice; conditions: 1 mg i.v.; cocaine 180 mg/kg i.p.
Description: In vivo protection against cocaine lethality. Male NIH-Swiss mice (25-32 g) were obtained from Harlan Inc. (Indianapolis, Ind.) and were housed in groups of 6 mice per cage. All mice were allowed ad libitum access to food and water, and were maintained on a 12-h light-dark cycle with lights on at 06.30 AM in a room kept at a temperature of 21-22° C. Experiments were performed in accordance with the Guide for the Care and Use of Laboratory Animals as adopted and promulgated by the National Institutes of Health. The experimental protocols were approved by the University Committee on the Use and Care of Animals at the University of Michigan.
Cocaine-induced toxicity was characterized by the occurrence of lethality, as defined by the cessation of observed movement and respiration. Mice were placed individually in Plexiglas observation chambers (16×28×20 cm high) to be habituated for 15 min before drug administration. Following intra-peritoneal (i.p.) cocaine administration, the mouse was immediately placed individually in the same chamber for observation. The presence or absence of lethality was recorded for 60 min following cocaine administration. The mouse was placed in a small restraint chamber (Outer tube diameter: 30 mm; Inner tube diameter: 24 mm) that left the tail exposed. The tail was cleansed with an alcohol wipe and a 30G1/2 precision glide needle (Fisher Scientific, Pittsburgh, Pa.) was inserted into one of the side veins for infusion. The i.v. injection volume of CocE or CocE mutant was 0.2 mL per mouse. Sterile gauze and pressure were applied to the injection site to staunch the bleeding.
Lethality was monitored following injection at 1, 5, 10, or 30 min, or 1, 2, 3, 4, 5 hours after enzyme administration. Each treatment used 8 mice to assess the percent of lethality (i.e., protection) in mice pretreated with a single dose of an esterase at a single time point.
These values were used to compare the degree of rightward shifts of cocaine's dose-response curve in the absence or presence of the enzyme pretreatment. In the time course study, a time point for duration of protection (i.e., 50% of lethality) was estimated by using each time course curve crossing 50% occurrence of lethality.
Evaluation of in vivo half life. CocE is administered IV to the tail vein in a volume of 0.2 ml. Animals are challenged with 180 mg/kg cocaine delivered intraperitoneally at a given time after CocE administration.

[9] = cocaine: 62.5 and 125 μM, benzoic acid: higher concentrations

Molecule | melting temperature of WT CocE in presence of compound (WT CocE) [°C] | inhibition of 4-nitrophenyl acetate cleavage (CocE [1]) [µM] | inhibition of 4-nitrophenyl acetate cleavage (CocE [1]; [9]) | inhibition of cocaine cleavage (CocE [2]) | effectiveness in stabilization screen (CocE [3]) | Stability @ 37 (t1/2) [4] [min] | half-life / τinact of activity at 37° C. [4] [min] | t1/2 [4] [min] | Kcat(mol · s^−1 · mol^−1) [5] [mol · s^−1 · mol^−1] | melting temperature higher than the WT [6] | melting temperature [6] [°C] | protection against cocaine-induced lethality [7] | LT50, pretreatment time to 50% lethality [8] [h] | plateau of catalytic activity, percent of maximal ([4]; 37° C., after greater than 8 hr / t=10 hours) | increase in Km [5] [fold] | rightward shift in the cocaine dose-response curve ([7]; enzyme 1 mg (30 mg/kg) i.v.)
CCOc1ccccc1N(CC(=O)N1CCCCC1)S(=O)(=O)c1ccccc1 [compound 6031818] | ~42 | 16 | weak inhibitor | does not inhibit | most effective | – | – | – | – | – | – | – | – | – | – | –
COc1ccc(OC)c(N(CC(=O)N2CCCCC2)S(=O)(=O)c2ccccc2)c1 [compound 6169221] | – | – | did not inhibit | did not inhibit | effective | – | – | – | – | – | – | – | – | – | – | –
B1 | – | – | – | – | – | ~46 | 46 | 46.8 | 2502 | 2-3 degrees | ~42 | protected | ~1.8 | – | – | –
B2 | – | – | – | – | – | ~274 | 274 | 274 | 3104 | – | ~65 | protected | ~3.3 | approximately 35% | ~5 | 6-7 fold
